US20180147281A1 (Astellas, published 2018)

Columns and labels:
[1] = biological target: T1, human NGF (R&D Systems, 256-GF-100/CF) (human, UniProt P01138 122-241, in the competitive ELISAs biotinylated with EZ-Link NHS-PEG4-Biotin (sites not given); unlabelled when immobilized in the binding ELISA); assay: human NGF-trkA competitive ELISA; geometric average of three tests
T1 construct: Commercial recombinant protein; also called biotinylated human NGF; nerve growth factor

[2] = biological target: T1, human NGF (R&D Systems, 256-GF-100/CF); assay: ELISA, human NGF immobilized, detection with biotinylated anti-human kappa light-chain antibody; geometric average of two runs
[3] = biological target: T1, human NGF (R&D Systems, 256-GF-100/CF); assay: human NGF-trkA competitive ELISA, IC50 after against before incubation
[4] = biological target: T1, human NGF (R&D Systems, 256-GF-100/CF); assay: human NGF-trkA competitive ELISA, trkA immobilized, biotinylated human NGF; geometric average of two runs
[5] = biological target: T1, human NGF (R&D Systems, 256-GF-100/CF); assay: human NGF-trkA competitive ELISA after incubation of the antibody 14 days at pH 6 and 50 C; geometric average of two runs

B1: Tanezumab (antibody, V domains shown)
VH: QVQLQESGPGLVKPSETLSLTCTVSGFSLIGYDLNWIRQPPGKGLEWIGIIWGDGTTDYNSAVKSRVTISKDTSKNQFSLKLSSVTAADTAVYYCARGGYWYATSYYFDYWGQGTLVTVSS
VL: DIQMTQSPSSLSASVGDRVTITCRASQSISNNLNWYQQKPGKAPKLLIYYTSRFHSGVPSRFSGSGSGTDFTFTISSLQPEDIATYYCQQEHTLPYTFGQGTKLEIKR
IC50 [1]: 0.86 µg/mL | EC50 [2]: 0.146 µg/mL

B2: fully human anti-human NGF antibody 1-15 (N52D-A)-Fab' fragment (Fab, V domains shown)
VH: QVQLQQWGAGLLKPSETLSLTCAVYGGSFSGYYWSWVRQPPGKGLEWIGEIDHSGSTNNNPSLKSRVTISVGTSKNQFSLKLSSVTAADTAVYYCSRDGGPESGMGAFDIWGQGTMVTVSS
VL: not shown
increase rate of the IC50 value after incubation for 14 days at 50 C relative to that before the incubation [3]: 59% | IC50 [4]: 0.3 µg/mL | IC50 [5]: 0.47 µg/mL
